In the RNAGym collection of RNA variant scans (doi:10.7554/elife.80360):

B1: CPEB3 Ribozyme (parent)
chain: GGGGGCCACAGCAGAAGCGUUCACGUCGCGGCCCCUGUCAGAUUCUGGUGAAUCUGCGAAUUCUGCUGU

Variants of: B1
Experiment: self-cleavage, relative activity (ratio to wild type); higher = more cleavage; co-transcriptional

| Variant | self-cleavage |
| --- | --- |
| GGGGGCCACUGCAGAAGCGUUCACGUCGCUGCCCCUGUCAGAUUCUGGUGAAUCUGCGAAUUCUGCUGU | 0.733 |
| GGGGGCCACAACAGAAGCGUUCACGUCGCGGCCCCUGUCAGAUUCUGGUGAAUCUGGGAAUUCUGCUGU | 0.262 |
| GGGGGCCACAACCGAAGCGUUCACGUCGCGGCCCCUGUCAGAUUCUGGUGAAUCUGCGAAUUCUGCUGU | 0.182 |
| GGGGGCCACAACGGAAGCGUUCACGUCGCGGCCCCUGUCAGAUUCUGGUGAAUCUGCGAAUUCUGCUGU | 0.184 |
| GGGGGCCACAACAGAAGCGUUCACAUCGCGGCCCCUGUCAGAUUCUGGUGAAUCUGCGAAUUCUGCUGU | 0.126 |
| GGGGGCCACUGCAGAAGCGUUCACGUCGCGGCCCCUGUCAGAUUCUGAUGAAUCUGCGAAUUCUGCUGU | 1.02 |
| GGGGGCCACUGCAGAAGCGUUCACGUCGCGGCCCCUGUCAGAUUCUGCUGAAUCUGCGAAUUCUGCUGU | 1.03 |
| GGGGGCCACAACAGAAGCGUUCACGUCGCGGCCCCUGUCAGAUUCUGGUGAAUCUGCGCAUUCUGCUGU | 0.3 |
| GGGGGCCACAACAGAAGCGUUCACGUCGCGGCCCCUGUCAGAUUCUGGUGAAUCUGCGGAUUCUGCUGU | 0.859 |
| GGGGGCCACAACAGAAGCGUUGACGUCGCGGCCCCUGUCAGAUUCUGGUGAAUCUGCGAAUUCUGCUGU | 0.119 |
| GGGGGCCACUCCAGAAGCGUUCACGUCGCGGCCCCUGUCAGAUUCUGGUGAAUCUGCGAAUUCUGCUGU | 0.892 |
| GGGGGCCACUACAGAAGCGUUCACGUCGCGGCCCCUGUCAGAUUCUGGUGAAUCUGCGAAUUCUGCUGU | 0.873 |
| GGGGGCCACUGCAGAAGCGUUCACGUCGCGGCCCCUGUCAGAUUCUGGUGAAUCCGCGAAUUCUGCUGU | 0.9 |
| GGGGGCCACUGCAGAAGCGUUCACGUCGCGGCCCCUGUCAGAUUCUGGUGAAUCUGCGAAUACUGCUGU | 0.882 |
| GGGGGCCACUGCAGAAGCGUUCACGUCGCGGCCCCUGUCAGAUUCUGGUGAAUCUGCGAAUCCUGCUGU | 0.757 |
| GGGGGCCACAACAGAAGCGUUCACGUCGCGGCCCCUUUCAGAUUCUGGUGAAUCUGCGAAUUCUGCUGU | 0.156 |
| GGGGGCCACUGCAGAAGCGUUCACAUCGCGGCCCCUGUCAGAUUCUGGUGAAUCUGCGAAUUCUGCUGU | 0.171 |
| GGGGGCCACAACAGAAGCGUUCACGUCGCGGCCGCUGUCAGAUUCUGGUGAAUCUGCGAAUUCUGCUGU | 0.695 |
| GGGGGCCACAACAGAAGCGUUCACGUCGCGGCCACUGUCAGAUUCUGGUGAAUCUGCGAAUUCUGCUGU | 0.715 |
| GGGGGCCACAACAGAAGCGUUCACGUCGCGGCACCUGUCAGAUUCUGGUGAAUCUGCGAAUUCUGCUGU | 0.853 |
| GGGGGCCACUGCAUAAGCGUUCACGUCGCGGCCCCUGUCAGAUUCUGGUGAAUCUGCGAAUUCUGCUGU | 0.654 |
| GGGGGCCACUGCAGAAGCGUUCACGUCGCGGCCCCCGUCAGAUUCUGGUGAAUCUGCGAAUUCUGCUGU | 0.924 |
| GGGGGCCACUGCAGAAGCGUUCACGUCGCGGCCCCGGUCAGAUUCUGGUGAAUCUGCGAAUUCUGCUGU | 0.195 |
| GGGGGCCACAACAGAAGCGUUCACGUCGCGGCCCCUGUCAGAUUCUGGUGCAUCUGCGAAUUCUGCUGU | 0.757 |
| GGGGGCCACUGCAGAAGCGUUCACGUCGCGGCCCCUGUCAGAUUCUGGUGAACCUGCGAAUUCUGCUGU | 0.871 |
| GGGGGCCACUGCAGAAGCGUUCACGUCGCGGCCCCUGUCAGAUUCUGGUGAAUCUGCGAAUUCUGCUGG | 1.06 |

| Variant | self-cleavage |
| --- | --- |
| GGGGGCCACUGCAGAAGCGUUCACGUCGCGGCCCCUGUCAGAUUCUGGUGAAUCUGCGAAUUCUGCUGC | 1.07 |
| GGGGGCCACUGCAGAAGCGUUCACGUCGCGGCCCCUGUCAGAUUCUGGUGAAUCUGCGAAUUCUUCUGU | 0.796 |
| GGGGGCCACUGCAGAAGCGUUCACGUCGCGGCCCCUGUCAGAUUCUGGUGAAUCUGCGAAUUCUACUGU | 0.842 |
| GGGGGCCACUGCAGAAGCGUUCACGUCGCGGCCCCUGUCAGAUUCUGGUGAAUCUGCGAAUUCUGCAGU | 0.997 |
| GGGGGCCACUGCAGAAGCGUUCACGUCGCGGCCCCUGUCAGAUUCUGGUGAAUCUGCGAAUUCUGCGGU | 1.01 |
| GGGGGCCACUGCAGAAGCGUUCACGUCGCGGCCCCUGUCAGAAUCUGGUGAAUCUGCGAAUUCUGCUGU | 0.941 |
| GGGGGCCACUGCAGAAGCGUUCACGUCGCGGCCCCUGUCAGACUCUGGUGAAUCUGCGAAUUCUGCUGU | 0.975 |
| GGGGGCCACUGCAGAAGCGUUCACGUCGCGGCCCCUGUCAGAGUCUGGUGAAUCUGCGAAUUCUGCUGU | 0.831 |
| GGGGGCCACAACAGAAGCGUUCACGUCGCGGCCCCUGUCAGAUUCUGGUGAAUCUGCGAAUUUUGCUGU | 0.707 |
| GGGGGCCACUGCAGAAGCGUUCACGUCGCGGCCCCUCUCAGAUUCUGGUGAAUCUGCGAAUUCUGCUGU | 0.3 |
| GGGGGCCACAACAGAAGCGUUCACGUCGCGGCCCGUGUCAGAUUCUGGUGAAUCUGCGAAUUCUGCUGU | 0.352 |
| GGGGGCCACAACAGAAGCGUUCACGUCGCGGCCCCUGUCAGAUUCUGGUGAAUCUGCGAAUUCUGGUGU | 0.917 |
| GGGGGCCACAACAGAAGCGUUCACGUCGCGGCCCCUGUCAGAUUCUGGUGAAUCUGCGAAUUCUGAUGU | 0.818 |
| GGGGGCCACUGCAGAAGCGUUCACGUCGCGGCCCCUGUCAGAUUCUGGUGAAUCUGCAAAUUCUGCUGU | 0.975 |
| GGGGGCCACAACAGAAGCGUUCACGUCGCGGCCCCUGUCUGAUUCUGGUGAAUCUGCGAAUUCUGCUGU | 0.357 |
| GGGGGCCACAACAGAAGCGUUCACGUCGCGGCCCCUGUCGGAUUCUGGUGAAUCUGCGAAUUCUGCUGU | 0.726 |
| GGGGGCCACAACAGAAGCGUUCACGUCACGGCCCCUGUCAGAUUCUGGUGAAUCUGCGAAUUCUGCUGU | 0.16 |
| GGGGGCCACAACAGAAGCGUUCACGUCCCGGCCCCUGUCAGAUUCUGGUGAAUCUGCGAAUUCUGCUGU | 0.157 |
| GGGGGCCACAACAGAAGCGUUCACGUCUCGGCCCCUGUCAGAUUCUGGUGAAUCUGCGAAUUCUGCUGU | 0.171 |
| GGGGGCCACAACAUAAGCGUUCACGUCGCGGCCCCUGUCAGAUUCUGGUGAAUCUGCGAAUUCUGCUGU | 0.126 |
| GGGGGCCACAACAGAAGCGUUCACGUCGCGACCCCUGUCAGAUUCUGGUGAAUCUGCGAAUUCUGCUGU | 0.838 |
| GGGGGCCACUGCAGAAGCGUUCACGUCCCGGCCCCUGUCAGAUUCUGGUGAAUCUGCGAAUUCUGCUGU | 0.137 |
| GGGGGCCACUGCAGAAGCGUUCACGUCUCGGCCCCUGUCAGAUUCUGGUGAAUCUGCGAAUUCUGCUGU | 0.14 |
| GGGGGCCACUGCAGAAGCGUUCACGUCACGGCCCCUGUCAGAUUCUGGUGAAUCUGCGAAUUCUGCUGU | 0.139 |
| GGGGGCCACAACAGAAGCGUUCACGUCGCGGUCCCUGUCAGAUUCUGGUGAAUCUGCGAAUUCUGCUGU | 0.95 |
| GGGGGCCACUGCAGAAGCGUUCACGUCGCGGCCCCUGUCAGAUUCCGGUGAAUCUGCGAAUUCUGCUGU | 0.983 |

| Variant | self-cleavage |
| --- | --- |
| GGGGGCCACUGCAGAAGCGUUCACGUCGCGGCCCCUGUCAGAUUCAGGUGAAUCUGCGAAUUCUGCUGU | 0.954 |
| GGGGGCCACAACAGAAGCGUUCACGUGGCGGCCCCUGUCAGAUUCUGGUGAAUCUGCGAAUUCUGCUGU | 0.139 |
| GGGGGCCACAACAGAAGCGUUCACGUAGCGGCCCCUGUCAGAUUCUGGUGAAUCUGCGAAUUCUGCUGU | 0.2 |
| GGGGGCCACAACAGAAGCGUUCACGUUGCGGCCCCUGUCAGAUUCUGGUGAAUCUGCGAAUUCUGCUGU | 0.107 |
| GGGGGCCACAACAGAAGCGUUCACGUCGCGGCCCCUGUCAGAUUCUGGUGAAUCUGCGACUUCUGCUGU | 0.205 |
| GGGGGCCACAACAGAAGCAUUCACGUCGCGGCCCCUGUCAGAUUCUGGUGAAUCUGCGAAUUCUGCUGU | 0.103 |
| GGGGGCCACAACAGCAGCGUUCACGUCGCGGCCCCUGUCAGAUUCUGGUGAAUCUGCGAAUUCUGCUGU | 0.849 |
| GGGGGCCACAACAGAAGCGUUCACGUCGCGGCCCCUGUCAGAUUAUGGUGAAUCUGCGAAUUCUGCUGU | 0.821 |
| GGGGGCCACAACAGAAGCGUUCACGUCGCGGCCCCUGUCAGAUUUUGGUGAAUCUGCGAAUUCUGCUGU | 0.906 |
| GGGGGCCACUGCAGAAGCGUUCACGUCGCGGCCCCUGUCAGAUUCUGGUGAAUCUUCGAAUUCUGCUGU | 0.984 |
| GGGGGCCACUGCAGAAGCGUUCACGUCGCGGCCCCUGUCAGAUUCUGGUGAAUCUACGAAUUCUGCUGU | 1.01 |
| GGGGGCCACUGCAGAAGCGUUCACGGCGCGGCCCCUGUCAGAUUCUGGUGAAUCUGCGAAUUCUGCUGU | 0.994 |
| GGGGGCCACUGCAGAAGCGUUCACGUCGCGGCCCCUGUCACAUUCUGGUGAAUCUGCGAAUUCUGCUGU | 0.859 |
| GGGGGCCACUGCAGAAGCGUUCACGUCGCGGCCCCUGUCAGAUUCUGGUGAAUCUGCGAAUUCAGCUGU | 0.8 |
| GGGGGCCACUGCAGAAGCGUUCACGUCGCGGCCCCUGUCAGAUUCUGGUGAAUCUGCGAAUUCGGCUGU | 0.897 |
| GGGGGCCACAAUAGAAGCGUUCACGUCGCGGCCCCUGUCAGAUUCUGGUGAAUCUGCGAAUUCUGCUGU | 0.549 |
| GGGGGCCACUGCAGAAGCGUUCACGUCGCGGCCCCUGUCAGAUUCUGGUGAAUCUGCGAAUUCUGCUAU | 1.05 |
| GGGGGCCACUGCAGAAGCGUUCACGUCGCGGCCCCUGUCAGAUUCUGGUGAAUCUGCGAAUUCUGCUUU | 0.982 |
| GGGGGCCACUGCAGAAGCGUUCACGUCGCGGCCCCUGUCAGAUUCUGGUGAAUCUGCGAAGUCUGCUGU | 0.78 |
| GGGGGCCACUGCAGAAGCGUUCACGUCGCGGCCCCUGUCAGAUUCUGGUGAAUCUGCGAAAUCUGCUGU | 0.911 |
| GGGGGCCACUGCAGAAGCGUUCACGUCGCGGCCCCUGUCAGAUACUGGUGAAUCUGCGAAUUCUGCUGU | 0.967 |
| GGGGGCCACUGCAGAAGCGUUCACGUCGCGGCCCCUGUCAGAUUCUGGUUAAUCUGCGAAUUCUGCUGU | 0.978 |
| GGGGGCCACUGCAGAAACGUUCACGUCGCGGCCCCUGUCAGAUUCUGGUGAAUCUGCGAAUUCUGCUGU | 0.547 |
| GGGGGCCACUGCAGAAGCGUUCACGUCGCGACCCCUGUCAGAUUCUGGUGAAUCUGCGAAUUCUGCUGU | 0.976 |
| GGGGGCCACUGCAGAAGCGUUCACGUCGCGUCCCCUGUCAGAUUCUGGUGAAUCUGCGAAUUCUGCUGU | 0.895 |
| GGGGGCCACAACAGAAGCGUUCACGUCGCGGCCCCUGUCAGAUUCUGGUGAGUCUGCGAAUUCUGCUGU | 0.928 |
